Laboratory results: US20200341015A1

Legend:
Test in all cases: cell-based or functional assay
[1] = target: recombinant human Rab6A (Jena Biosciences) (human) (UniProt P20340)
[2] = target: recombinant human Rab27A (Abnova Corporation) (human) (UniProt P51159)
[3] = target: recombinant human Rab6A (Jena Biosciences) (human) (UniProt P20340); remark: listed apart in the source

Sequence of UniProt P20340 (P20340 whole entry): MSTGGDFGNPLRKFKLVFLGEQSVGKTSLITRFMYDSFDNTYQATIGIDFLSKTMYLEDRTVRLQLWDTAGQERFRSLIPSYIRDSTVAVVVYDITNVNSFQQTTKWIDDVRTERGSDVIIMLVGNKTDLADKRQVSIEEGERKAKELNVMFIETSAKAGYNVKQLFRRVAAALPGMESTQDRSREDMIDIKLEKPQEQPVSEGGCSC
Sequence of UniProt P51159 (P51159 whole entry): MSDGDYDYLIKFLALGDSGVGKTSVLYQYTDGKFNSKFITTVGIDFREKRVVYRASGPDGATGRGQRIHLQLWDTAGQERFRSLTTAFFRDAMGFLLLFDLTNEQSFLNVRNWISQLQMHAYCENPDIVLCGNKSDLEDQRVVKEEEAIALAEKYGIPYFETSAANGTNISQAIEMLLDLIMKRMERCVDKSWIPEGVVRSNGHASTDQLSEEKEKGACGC

band intensity of biotinylated Rab6a in positive controls, fold against the Rab27a data of FIG. 2 [1] [fold] | band density values of biotinylated Rab substrate, condition 4 [2] | band density values of biotinylated Rab substrate, condition 7 [2] | baseline biotin incorporation in untransduced samples (band density) [2] [a.u.] | best-fit top of the curve, biotin incorporation against MOI of rAAV2/2-REP1 (4-PL) [2] [a.u.] | band density of biotinylated substrate, fold against Rab27a in matching conditions [3] [fold] | band density values of biotinylated Rab substrate, condition 12 [3] | band density values of biotinylated Rab substrate, condition 15 [3] | baseline biotin incorporation in untransduced samples (band density) [3] [a.u.] | best-fit top of the curve, biotin incorporation against MOI of rAAV2/2-REP1 (4-PL) [3] [a.u.] | biotinylated substrate, fold against Rab27a (untransduced 293 lysate) [3] [fold] | strength of the WB signal of biotinylated Rab6a, fold against the Rab27a data of FIG. 2 (AAV-REP1 transduced cells) [3] [fold] | Molecule
100 |  |  |  |  |  |  |  |  |  |  |  | recombinant fish His-REP1 (Jena Biosciences)
 | 0.8 | 0.3 | 0.577 | 53.8 | < 2.5 | 1.8 | 0.75 | 5.01 | 92.8 | 2.5 | 10 | human Rab escort protein 1 (REP1) (protein, UniProt P24386 1-653, looked up) MADTLPSEFDVIVIGTGLPESIIAAACSRSGRRVLHVDSRSYYGGNWASFSFSGLLSWLKEYQENSDIVSDSPVWQDQILENEEAIALSRKDKTIQHVEVFCYASQDLHEDVEEAGALQKNHALVTSANSTEAADSAFLPTEDESLSTMSCEMLTEQTPSSDPENALEVNGAEVTGEKENHCDDKTCVPSTSAEDMSENVPIAEDTTEQPKKNRITYSQIIKEGRRFNIDLVSKLLYSRGLLIDLLIKSNVSRYAEFKNITRILAFREGRVEQVPCSRADVFNSKQLTMVEKRMLMKFLTFCMEYEKYPDEYKGYEEITFYEYLKTQKLTPNLQYIVMHSIAMTSETASSTIDGLKATKNFLHCLGRYGNTPFLFPLYGQGELPQCFCRMCAVFGGIYCLRHSVQCLVVDKESRKCKAIIDQFGQRIISEHFLVEDSYFPENMCSRVQYRQISRAVLITDRSVLKTDSDQQISILTVPAEEPGTFAVRVIELCSSTMTCMKGTYLVHLTCTSSKTAREDLESVVQKLFVPYTEMEIENEQVEKPRILWALYFNMRDSSDISRSCYNDLPSNVYVCSGPDCGLGNDNAVKQAETLFQEICPNEDFCPPPPNPEDIILDGDSLQPEASESSAIPEANSETFKESTNLGNLEESSE
